Here are results for 167 variants from the RNAGym collection of RNA variant scans (doi:10.1073/pnas.2313332121).

This sample holds only a part of the variants without activity. Bounds are passed on as bounds.

Sequences and labels used below:
B1: TPR 5TU (parent)
chain: GGAUCUUCUCGAUCUAACAAAAAAGACAAAUCUGCCACAAAGCUUGAGAGCAUCUUCGGAUGCAGAGGCGGCAGCCUUCGGUGGCGCGAUAGCGCCAACGUUCUCAACUAUGACACGCAAAACGCGUGCUCCGUUGAAUGGAGUUUAUCAUG

The variants in the series derive from B1. The series can be described thus: polymerase ribozyme fitness, log enrichment relative to wild type (log ratio); higher = more active; in vitro selection for triplet polymerase activity. Put shortly:
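Libraries of mutants in each subunit of a heterodimeric triplet polymerase ribozyme were generated by PCR and transcribed. In triplicate, each went through one in vitro selection round: annealing with biotinylated primer, partner subunit and triplets; frozen incubation at −7 °C; gel excision of extended constructs; streptavidin-bead capture; RT-PCR. Fitness, taken from Illumina sequencing of input and output libraries, is the logarithm of a genotype's enrichment over wild-type enrichment, averaged across replicates with inverse-variance weights. The logarithm is base 2, and genotypes needed ≥10 input reads and ≥1 read per output to be kept.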
Turning to G80A A91C A120G, the “polymerase ribozyme fitness (log ratio)” value was not above -4.2.
To C51U C72U G80A C85A U109G belongs not above -4.2.
For the variant A12U A122U A147C, the “polymerase ribozyme fitness (log ratio)” value was -0.484.
As to U55A G59C C103U U104G, the “polymerase ribozyme fitness (log ratio)” value is -3.29.
To U55G C69U belongs -2.89; to A52G C72U G81A G86A C103G A122C, not above -4.2; to A24G G83U, -3.03.
The same measure for G58A C85G: -2.86; for C87U C116G G152U: -3.11; for A17U A21C U44A A49C C72A U82A U134A: not above -4.2.
The same measure for G48C A73U U101C U104A A115G G124U: not above -4.2.
With U4C U6G G74C G80C G92U C103G A106U, the “polymerase ribozyme fitness (log ratio)” value is not above -4.2.
As for A41C C132A, the “polymerase ribozyme fitness (log ratio)” value was -2.55.
The same measure for A26U U33G G92A C95U U134G: not above -4.2.
C99U U104A U109C A115G: the “polymerase ribozyme fitness (log ratio)” value is -3.79.
The same measure for C51A U61A C95U: -2.06.
The same measure for G124U G140A: -4.
As to A28U C79A C87G C96G, the “polymerase ribozyme fitness (log ratio)” value was not above -4.2.
With A39U A113C, the “polymerase ribozyme fitness (log ratio)” value was -4.11.
To U45G A137C belongs -4.14; to G133C U144C C149U, -3.98.
The same measure for A29U C95U: -3.54; for C105G G141C: -2.56; for C76U G86A: -0.246.
To U82C C96G A120U U127G belongs -2.72; to U13G A30C G50C U82A A110C G136U, not above -4.2.
In the case of G83U C114G A115U A119U, the “polymerase ribozyme fitness (log ratio)” value was not above -4.2.
To C43G G80U G84A C93A U134C belongs not above -4.2; to A23G C35U C51U C93G A121G A122U, not above -4.2.
To C87U C96A belongs -1.2; to A20C U61G, -1.36.
With U7G C27U G48C G59C C76U C79A G83U C93A, the “polymerase ribozyme fitness (log ratio)” value is not above -4.2.
The same measure for A16G A19G A23U A26C U44A U53A C87G C103A: -4.11; for C14A A40G C43G G86U U135C G143C U148G: not above -4.2; for G11A A89G G94A C105G G112C: not above -4.2.
To U13C A66U G88A A91U belongs not above -4.2; to C36A C96A, not above -4.2.
To A23U A29C C85G A110G G112U belongs not above -4.2; to C38A G50U, -0.722.
With C76A C85U A137G, the “polymerase ribozyme fitness (log ratio)” value is -1.76.
The same measure for U55A G84U A113C: -3.62; for U6C A24U A28C C35U A37U U90G C93A C131U U145C: not above -4.2.
The same measure for C57A G83C C87U U134G U139A U144G: not above -4.2; for C38U C149U: -2.71.
The same measure for U55A U56A G71A U82G U102G: not above -4.2; for G50C A73U G80A G81U C95A G100U U151C: not above -4.2.
A19U G83U: the “polymerase ribozyme fitness (log ratio)” value is -0.798.
The same measure for G117C: 0.422.
In the case of A37U A60U C75U C96A U111A, the “polymerase ribozyme fitness (log ratio)” value is not above -4.2.
The same measure for C14G A24C C35U C57A G84U A97U: not above -4.2.
To A26G C32G A64G C103A belongs not above -4.2; to C87U C123U G126U, 0.848.
To U55A C76A G84U C116U A137U belongs not above -4.2.
Take A17G A37U U82C C96A: the “polymerase ribozyme fitness (log ratio)” value is -2.2.
As to G92U C105U A107U A110C A138C, the “polymerase ribozyme fitness (log ratio)” value is not above -4.2.
The same measure for A22U G58C C87U U135C: -2.68; for G80A A98C: -2.19.
The same measure for C10G C93U: -3.86; for A3G A20C G65C G68C A98G C149U G152U: not above -4.2.
The same measure for C8U C57U: -3.18; for A22U A26U: -2.88.
As to A23C G84U A106U G117U C118U C123U A142G, the “polymerase ribozyme fitness (log ratio)” value is not above -4.2.
The same measure for C54G A60G C95G: -2.44; for A49C C96G: -3.45; for C5G C10G G92A C123U A138C G143A: not above -4.2.
To A52C G58C G88U belongs not above -4.2.
To C8A A40U C57U U78A A119C belongs not above -4.2; to C51U C103A A121C, -1.
Take U4G A12G A22U U53A C72G G100A U111G C125U: the “polymerase ribozyme fitness (log ratio)” value is not above -4.2.
To A17G C32A A49C G83U A107G G143U belongs not above -4.2; to U9G C85U G92U U145A, not above -4.2.
The same measure for A49G A52C U56A A91G G92A A121G: -3.9; for C8A U15G C95U A98G C149U A150U: -4.06.
The same measure for G94U U148C: -2.92.
As to A21U G80A, the “polymerase ribozyme fitness (log ratio)” value is -0.249.
Consider A47C G59A G62C G67C G68C C99U A107U C114A A121G, for which the “polymerase ribozyme fitness (log ratio)” value was not above -4.2.
The same measure for C51G G94C C149U: -3.9.
To A89C A107U belongs not above -4.2; to C10U A12C G34A G92C, -4.16; to G46U A47C G58U C108U A119U G128U, not above -4.2.
To G42A G50A C57U G67C C79U G83U C93U belongs not above -4.2.
Regarding A40U A60G A66U A73G A91G C99G, the “polymerase ribozyme fitness (log ratio)” value is not above -4.2.
To A28U C43A U109G G141C belongs not above -4.2; to A16G A22U A91U C93U U102G G128U, not above -4.2; to C99U U145G, -2.09.
On to C96G A97U C118A, for which the “polymerase ribozyme fitness (log ratio)” value is -3.08.
For the variant A60G A110G G136A, the “polymerase ribozyme fitness (log ratio)” value was -2.56.
The same measure for A19U A20C A73G G92U C116A: -0.142; for C5A A17U G83A U146G: -0.599.
The same measure for A24U A97G U151C: not above -4.2; for C5A C99U: -0.267; for U13C G50U G86C A89U C96A C116A: not above -4.2.
To G58U C95A C149U belongs -0.828.
On to G59C G92U C105A C125A C149U, for which the “polymerase ribozyme fitness (log ratio)” value is not above -4.2.
To U15G A24C G59C G68C C79G G81U C95A C132U belongs not above -4.2; to A28C U56A C72U C76G, not above -4.2.
As for G62U C63U G68A C95A C103A, the “polymerase ribozyme fitness (log ratio)” value is not above -4.2.
The same measure for A37U G94A U104G: -2.92; for C54U C75G: -3.81; for A30C A52C G83U G84C U135A G141C: not above -4.2.
To C63A C79U G94C A119G belongs not above -4.2; to U6G C8G C18U C54U C131U, -3.56; to A29G A52C C57U C93U, not above -4.2.
As for U15G A40C G42A A49G G62C C93A, the “polymerase ribozyme fitness (log ratio)” value was not above -4.2.
The same measure for A24U G86C: -2.81; for C54G C75U: -1.86.
Take C27U U61G U82G A89U A91G G100A A113U G140U: the “polymerase ribozyme fitness (log ratio)” value was not above -4.2.
With A23U C57A G92C C149G, the “polymerase ribozyme fitness (log ratio)” value was not above -4.2.
Consider A49U C69U, for which the “polymerase ribozyme fitness (log ratio)” value is -1.86.
The same measure for A52C A60C: -2.71; for C38A C85A: -2.61.
As for A17C G25C A41U C51A G84C G94U A110G U144C U146G, the “polymerase ribozyme fitness (log ratio)” value was not above -4.2.
With U55A U56A U78C G83U A89U, the “polymerase ribozyme fitness (log ratio)” value was -0.955.
The same measure for C32A C54U C93A A110G A137G G140C: -4.17; for G58C C87G: not above -4.2; for C85G A106C G141U G143U U151A: not above -4.2.
The same measure for G42A A52G G70C G141C: not above -4.2; for A19U A30U U56A G62C C76U: not above -4.2; for G42A A47C U55A C85U: not above -4.2.
As to C76U C85U A138C U144A, the “polymerase ribozyme fitness (log ratio)” value was not above -4.2.
The same measure for C36A G70U G80U C105U: -0.569; for U9C C18G A21G A29U C87G: not above -4.2; for C35U C57A: 0.0108.
To G70C G80A belongs -3.94; to G48A G136C, -2.57; to U55G G92C, -0.157.
On to U45A C85G, for which the “polymerase ribozyme fitness (log ratio)” value was -3.95.
For the variant C54A G94U C105U, the “polymerase ribozyme fitness (log ratio)” value is -2.47.
To G50A C54G U77G A97U A120G belongs not above -4.2.
To G83U C87U A89C G141A A142G belongs not above -4.2; to C85G C118A A142U, -2.93; to C54A A91U U109C G140U U146C, not above -4.2.
To C8U C18G C38A C76U U78C A106U A110C C132G U135C U144C U148A C149G belongs not above -4.2; to A12U A23U A40U C87A G88C G117U, not above -4.2.
Regarding U15C A22C C51U G81U C85U G94A A122G, the “polymerase ribozyme fitness (log ratio)” value is -1.17.
The same measure for C85G U139A: -4.19.
To G42A A52C belongs -3.82.
To C18U A20G C76A U77A G92U U101A U134G belongs not above -4.2.
On to U53G A64U C69U C76U A98U C108A, for which the “polymerase ribozyme fitness (log ratio)” value is not above -4.2.
To A17U A23U C36G C57A G70U U78C C85U C103G A147C C149U belongs not above -4.2; to A52G A106U U135A, -1.7.
The same measure for U9G A47G: -3.86.
The same measure for A52C C54U: -1.87; for U78G C79U G94C A115C G143A: not above -4.2.
Consider U53A A73G G86A G92U C95U G143U, for which the “polymerase ribozyme fitness (log ratio)” value is not above -4.2.
To U7A A19U A49U G88U G100U belongs not above -4.2; to G48A U55A, -1.14; to G83U A98U C105U, -0.156.
The same measure for C18U G86U: -2.18.
The same measure for A19C A41G G59U A91C A107G A120U: not above -4.2.
With U55A A91U G136A, the “polymerase ribozyme fitness (log ratio)” value was not above -4.2.
As to A12G A16U C54U A73G G83U G84C C95G G140C, the “polymerase ribozyme fitness (log ratio)” value was not above -4.2.
To C32G U56A C57A C114G belongs -4.19.
To C85A C118U belongs -0.342; to C103A, -1.23.
Take A23C U53A C93U U134G: the “polymerase ribozyme fitness (log ratio)” value is not above -4.2.
G42U C57A: the “polymerase ribozyme fitness (log ratio)” value is not above -4.2.
The same measure for G83C C96U C108G G143U: not above -4.2.
For G25C C69G C96A C99U C118A, the “polymerase ribozyme fitness (log ratio)” value is not above -4.2.
The same measure for U15G A16C A21U A26C C103U: -3.98.
Consider C76A G143U, for which the “polymerase ribozyme fitness (log ratio)” value was -3.02.
The same measure for C93A C116A G126A G141C: not above -4.2; for A107G A121U: -4.18.
To C54G U55A G58A C99G C132A belongs not above -4.2; to C43U C85U G88U C96A C123G G124C C129U G133C U139C, not above -4.2; to A22C G84C G133U, not above -4.2.
The same measure for C96A C118U: -1.8.
